Where two headings read alike, the source gives them in different places.
T1: human IL4Rα/Fc (R and D Systems 604-4R) (human, UniProt P24394 26-232)
T1 construct: Bought product; also called human IL4Rα-Fc receptor; IL-4Rα/Fc (R&D systems Cat. No. 604-4R-050)
T1 sequence (looked up): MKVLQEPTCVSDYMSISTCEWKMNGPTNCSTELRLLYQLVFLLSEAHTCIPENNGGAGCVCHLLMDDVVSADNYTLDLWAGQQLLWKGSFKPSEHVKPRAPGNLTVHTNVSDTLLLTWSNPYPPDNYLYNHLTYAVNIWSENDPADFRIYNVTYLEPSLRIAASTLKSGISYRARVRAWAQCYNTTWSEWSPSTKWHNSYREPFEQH


Experiments:
[1] = target: human IL-4Rα on TF-1 cells (human) (UniProt P24394); experiment: cell-based or functional assay
[2] = target: antibody used for epitope mapping in Example 5 (not named); experiment: HTRF competition vs biotinylated human IL-4Rα/Fc for Eu-cryptate antibody
[3] = target: antibody used for epitope mapping in Example 5 (not named); experiment: as above; remark: listed apart in the source
[4] = target: T1, human IL4Rα/Fc (R and D Systems 604-4R); experiment: HTRF receptor-ligand competition, scFv vs biotinylated human IL4

Binder | IC50 [2] | other results
Antibody 24 (PGL) IgG (antibody, from another filing, V domains shown) VH: QVQLVQSGAEVKKPGASVKVSCKASGYAFTSYYMHWVRQAPGQGLEWMGIINPRGGSTSYAQKFQGRVTMTRDTSTSTVYMELSSLRSEDTAVYYCARGKYWMYDWGKGTLVTVSS VL: QSVLTQPPSVSAAPGQKVTISCSGGSSNIGNSYVSWYQQLPGTAPKLLIYDNNKRPSGIPDRFSGSKSGTSATLGITGLQTGDEADYFCGTWDTSTVWEWPFGTGTKLTVL | – | IC50, IL-4 induced TF-1 cell proliferation [1]: 0.0153 nM; IC50, IL-13 induced TF-1 cell proliferation [1]: 0.055 nM
MoD1HuD2IL-4Rα (receptor) IKVLGEPTCFSDYIRTSTCEWFLDSAVDCSSQLCLHYRLMFFEFSENLTCIPRNSASTVCVCHMEMNRPVQSDRYQMELWAEHRQLWQGSFSPSGHVKPRAPGNLTVHTNVSDTLLLTWSNPYPPDNYLYNHLTYAVNIWSENDPADFRIYNVTYLEPSLRIAASTLKSGISYRARVRAWAQCYNTTWSEWSPSTKWHNSYREPFNPAFLYKVVGAADYKDDDDKAAHHHHHHHHHH | – | % inhibition at 1000nM [2]: 34%
MoLoop1HuIL-4Rα (receptor) MKVLQEPTCVSDYIRTSTCEWKMNGPTNCSTELRLLYQLVFLLSEAHTCIPENNGGAGCVCHLLMDDVVSADNYTLDLWAGQQLLWKGSFKPSEHVKPRAPGNLTVHTNVSDTLLLTWSNPYPPDNYLYNHLTYAVNIWSENDPADFRIYNVTYLEPSLRIAASTLKSGISYRARVRAWAQCYNTTWSEWSPSTKWHNSYREPFNPAFLYKVVGAADYKDDDDKAAHHHHHHHHHH | 1.9 nM | –
MoLoop3HuIL-4Rα (receptor) MKVLQEPTCVSDYMSISTCEWKMNGPTNCSTELRLLYQLVFLLSEAHTCIPENNGGAGCVCHLEMNRPVQSDRYTLDLWAGQQLLWKGSFKPSEHVKPRAPGNLTVHTNVSDTLLLTWSNPYPPDNYLYNHLTYAVNIWSENDPADFRIYNVTYLEPSLRIAASTLKSGISYRARVRAWAQCYNTTWSEWSPSTKWHNSYREPFNPAFLYKVVGAADYKDDDDKAAHHHHHHHHHH | – | % inhibition at 1000nM [2]: 58%; % inhibition at 1000nM [3]: 45%
MoLoop4HuIL-4Rα (receptor) MKVLQEPTCVSDYMSISTCEWKMNGPTNCSTELRLLYQLVFLLSEAHTCIPENNGGAGCVCHLLMDDVVSADNYTLDLWAGQQLLWKGSFKPSEHVKPRAPGNLTVHTNVSDTLLLTWNNLYPSNNYLYNHLTYAVNIWSENDPADFRIYNVTYLEPSLRIAASTLKSGISYRARVRAWAQCYNTTWSEWSPSTKWHNSYREPFNPAFLYKVVGAADYKDDDDKAAHHHHHHHHHH | 0.663 nM | –
MoLoop5HuIL-4Rα (receptor) MKVLQEPTCVSDYMSISTCEWKMNGPTNCSTELRLLYQLVFLLSEAHTCIPENNGGAGCVCHLLMDDVVSADNYTLDLWAGQQLLWKGSFKPSEHVKPRAPGNLTVHTNVSDTLLLTWSNPYPPDNYLYNHLTYAVNIWSENDPADFRIYNVTYLEPSLRIAASTLKSGISYRARVRAWSQILTGTWSEWSPSTKWHNSYREPFNPAFLYKVVGAADYKDDDDKAAHHHHHHHHHH | 1.4 nM | –
EM19 (receptor) MKVLQEPTCVSDYMSISTCEWKMNGPTNCSTELRLLYQLMFLEFSENLTCIPENNGGAGCVCHLLMDDVVSADNYTLDLWAGQQLLWKGSFKPSEHVKPRAPGNLTVHTNVSDTLLLTWSNPYPPDNYLYNHLTYAVNIWSENDPADFRIYNVTYLEPSLRIAASTLKSGISYRARVRAWAQCYNTTWSEWSPSTKWHNSYREPFNPAFLYKVVGAADYKDDDDKAAHHHHHHHHHH | 4.5 nM | –
EM20 (receptor) MKVLQEPTCVSDYMSISTCEWKMNGPTNCSTELRLLYQLMFFFSENLTCIPENNGGAGCVCHLLMDDVVSADNYTLDLWAGQQLLWKGSFKPSEHVKPRAPGNLTVHTNVSDTLLLTWSNPYPPDNYLYNHLTYAVNIWSENDPADFRIYNVTYLEPSLRIAASTLKSGISYRARVRAWAQCYNTTWSEWSPSTKWHNSYREPFNPAFLYKVVGAADYKDDDDKAAHHHHHHHHHH | 3.8 nM | –
EM21 (receptor) MKVLQEPTCVSDYMSISTCEWKMNGPTNCSTELRLLYQLMFFELSENLTCIPENNGGAGCVCHLLMDDVVSADNYTLDLWAGQQLLWKGSFKPSEHVKPRAPGNLTVHTNVSDTLLLTWSNPYPPDNYLYNHLTYAVNIWSENDPADFRIYNVTYLEPSLRIAASTLKSGISYRARVRAWAQCYNTTWSEWSPSTKWHNSYREPFNPAFLYKVVGAADYKDDDDKAAHHHHHHHHHH | 5.7 nM | –
EM22 (receptor) MKVLQEPTCVSDYMSISTCEWKMNGPTNCSTELRLLYQLMFFEFSEALTCIPENNGGAGCVCHLLMDDVVSADNYTLDLWAGQQLLWKGSFKPSEHVKPRAPGNLTVHTNVSDTLLLTWSNPYPPDNYLYNHLTYAVNIWSENDPADFRIYNVTYLEPSLRIAASTLKSGISYRARVRAWAQCYNTTWSEWSPSTKWHNSYREPFNPAFLYKVVGAADYKDDDDKAAHHHHHHHHHH | 19 nM | –
EM24 (receptor) MKVLQEPTCVSDYMSISTCEWKMNGPTNCSTELRLLYQLVFFEFSEAHTCIPENNGGAGCVCHLLMDDVVSADNYTLDLWAGQQLLWKGSFKPSEHVKPRAPGNLTVHTNVSDTLLLTWSNPYPPDNYLYNHLTYAVNIWSENDPADFRIYNVTYLEPSLRIAASTLKSGISYRARVRAWAQCYNTTWSEWSPSTKWHNSYREPFNPAFLYKVVGAADYKDDDDKAAHHHHHHHHHH | 13 nM | –
EM25 (receptor) MKVLQEPTCVSDYMSISTCEWKMNGPTNCSTELRLLYQLVFLLSENLTCIPENNGGAGCVCHLLMDDVVSADNYTLDLWAGQQLLWKGSFKPSEHVKPRAPGNLTVHTNVSDTLLLTWSNPYPPDNYLYNHLTYAVNIWSENDPADFRIYNVTYLEPSLRIAASTLKSGISYRARVRAWAQCYNTTWSEWSPSTKWHNSYREPFNPAFLYKVVGAADYKDDDDKAAHHHHHHHHHH | 0.448 nM | –
Antibody 1 scFv (scFv, V domains shown) VH: QVQLVQSGAEVKKPGASVKVSCKASGYAFTSYYMHWARQAPGQGLEWMGIINPSGGSTSYAQKFQGRVTMTRDTSTSTVYMELSSLRSEDTAVYYCARGKWWLDYWGKGTLVTVSS VL: QSVLTQPPSVSAAPGQKVTISCSGGSSNIGNSYVSWYQQLPGTAPKLLIYDNNKRPSGIPDRFSGSKSGTSATLAITGLQTGDEADYYCGTWDTSLSANYVFGTGTKLTVL | – | Ki [4]: 12 nM

— patent EP2245064B1 (MEDIMMUNE LIMITED, dated 2014)
